Experimental findings from patent publication US20100267626 are described below.

This data set concerns the target T1, GST-Axin1 (a.a. 1-280), O35625.
T1 chain: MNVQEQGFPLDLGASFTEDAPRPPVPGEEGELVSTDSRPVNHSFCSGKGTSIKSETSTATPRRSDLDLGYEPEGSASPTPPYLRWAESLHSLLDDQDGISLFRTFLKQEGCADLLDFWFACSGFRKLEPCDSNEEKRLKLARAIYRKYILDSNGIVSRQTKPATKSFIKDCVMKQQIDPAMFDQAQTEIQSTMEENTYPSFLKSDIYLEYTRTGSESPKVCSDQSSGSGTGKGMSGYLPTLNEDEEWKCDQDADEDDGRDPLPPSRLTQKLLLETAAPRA

B1: Recombinant TNKS2 (in vitro PARsylation assay) (protein)
chain: MSGRRCAGGGAACASAAAEAVEPAARELFEACRNGDVERVKRLVTPEKVNSRDTAGRKSTPLHFAAGFGRKDVVEYLLQNGANVQARDDGGLIPLHNACSFGHAEVVNLLLRHGADPNARDNWNYTPLHEAAIKGKIDVCIVLLQHGAEPTIRNTDGRTALDLADPSAKAVLTGEYKKDELLESARSGNEEKMMALLTPLNVNCHASDGRKSTPLHLAAGYNRVKIVQLLLQHGADVHAKDKGDLVPLHNACSYGHYEVTELLVKHGACVNAMDLWQFTPLHEAASKNRVEVCSLLLSYGADPTLLNCHNKSAIDLAPTPQLKERLAYEFKGHSLLQAAREADVTRIKKHLSLEMVNFKHPQTHETALHCAAASPYPKRKQICELLLRKGANINEKTKEFLTPLHVASEKAHNDVVEVVVKHEAKVNALDNLGQTSLHRAAYCGHLQTCRLLLSYGCDPNIISLQGFTALQMGNENVQQLLQEGISLGNSEADRQLLEAAKAGDVETVKKLCTVQSVNCRDIEGRQSTPLHFAAGYNRVSVVEYLLQHGADVHAKDKGGLVPLHNACSYGHYEVAELLVKHGAVVNVADLWKFTPLHEAAAKGKYEICKLLLQHGADPTKKNRDGNTPLDLVKDGDTDIQDLLRGDAALLDAAKKGCLARVKKLSSPDNVNCRDTQGRHSTPLHLAAGYNNLEVAEYLLQHGADVNAQDKGGLIPLHNAASYGHVDVAALLIKYNACVNATDKWAFTPLHEAAQKGRTQLCALLLAHGADPTLKNQEGQTPLDLVSADDVSALLTAAMPPSALPSCYKPQVLNGVRSPGATADALSSGPSSPSSLSAASSLDNLSGSFSELSSVVSSSGTEGASSLEKKEVPGVDFSITQFVRNLGLEHLMDIFEREQITLDVLVEMGHKELKEIGINAYGHRHKLIKGVERLISGQQGLNPYLTLNTSGSGTILIDLSPDDKEFQSVEEEMQSTVREHRDGGHAGGIFNRYNILKIQKVCNKKLWERYTHRRKEVSEENHNHANERMLFHGSPFVNAIIHKGFDERHAYIGGMFGAGIYFAENSSKSNQYVYGIGGGTGCPVHKDRSCYICHRQLLFCRVTLGKSFLQFSAMKMAHSPPGHHSVTGRPSVNGLALAEYVIYRGEQAYPEYLITYQIMRPEGMVDG
For the protein B1, the “in vitro PARsylation with biotin-NAD+ (SDS-PAGE, streptavidin probe)” value is on record as “TNKS2 was able to PARsylate an Axin1 fragment (a.a. 1-280) containing the TBD in vitro, which was completely inhibited by XAV939 treatment”.
